Data set [1] addresses T1, EA2 acceptor peptide (PTTDSTTPAPTTK).
T1 chain: PTTDSTTPAPTTK

For data set [2], the target named is T2, MUC2 acceptor peptide (PTTTPISTTTMVTPTPTPTC).
T2 chain: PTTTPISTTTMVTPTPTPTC

In data set [3] the target is T3, MUC7 acceptor peptide (Ac-CPPTPSATTPAPPSSSAPPETTAA).
T3 chain: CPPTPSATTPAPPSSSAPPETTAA

B1: human recombinant GalNAc-T3 (enzyme source of Example 6) (protein)
chain: MERNMKNKNKMLDLMLEAVNNIKDAMPKMQIGAPVRQNIDAGERPCLQGYYTAAELKPVLDRPPQDSNAPGASGKAFKTTNLSVEEQKEKERGEAKHCFNAFASDRISLHRDLGPDTRPPECIEQKFKRCPPLPTTSVIIVFHNEAWSTLLRTVHSVLYSSPAILLKEIILVDDASVDEYLHDKLDEYVKQFSIVKIVRQRERKGLITARLLGATVATAETLTFLDAHCECFYGWLEPLLARIAENYTAVVSPDIASIDLNTFEFNKPSPYGSNHNRGNFDWSLSFGWESLPDHEKQRRKDETYPIKTPTFAGGLFSISKEYFEYIGSYDEEMEIWGGENIEMSFRVWQCGGQLEIMPCSVVGHVFRSKSPHSFPKGTQVIARNQVRLAEVWMDEYKEIFYRRNTDAAKIVKQKAFGDLSKRFEIKHRLQCKNFTWYLNNIYPEVYVPDLNPVISGYIKSVGQPLCLDVGENNQGGKPLIMYTCHGLGGNQYFEYSAQHEIRHNIQKELCLHAAQGLVQLKACTYKGHKTVVTGEQIWEIQKDQLLYNPFLKMCLSANGEHPSLVSCNPSDPLQKWILSQND
For B1, the “galactosyltransferase activity with UDP-Gal” value is reported as “EA2, 6.8 nmol/min/ml” in data set [1]; “Muc2, 0 nmol/min/ml” in data set [2]; “Muc7, 0.1 nmol/min/ml” in data set [3].

For the origin of these results see patent US7338932.
